Source: patent US20090081200A1

How the values were obtained:
[1] = biological target: full-length human tissue factor with C-terminal RGS-His6 tag, stably expressed on CHO-K1 cells (human) (UniProt P13726); assay: flow cytometry (FACScan) on stable CHO clone #TF48 expressing full-length hTF; first antibody 10 µg/ml, FITC-labeled goat anti-mouse IgG 1:50
[2] = biological target: full-length human tissue factor with C-terminal RGS-His6 tag, stably expressed on CHO-K1 cells (human) (UniProt P13726); assay: flow cytometry (FACScan) on stable CHO clone #TF34 expressing full-length hTF; first antibody 10 µg/ml, FITC-labeled goat anti-mouse IgG 1:50

Chain of full-length human tissue factor with C-terminal RGS-His6 tag, stably expressed on CHO-K1 cells (human) (P13726 other isoform, or with tags, fused parts or gaps): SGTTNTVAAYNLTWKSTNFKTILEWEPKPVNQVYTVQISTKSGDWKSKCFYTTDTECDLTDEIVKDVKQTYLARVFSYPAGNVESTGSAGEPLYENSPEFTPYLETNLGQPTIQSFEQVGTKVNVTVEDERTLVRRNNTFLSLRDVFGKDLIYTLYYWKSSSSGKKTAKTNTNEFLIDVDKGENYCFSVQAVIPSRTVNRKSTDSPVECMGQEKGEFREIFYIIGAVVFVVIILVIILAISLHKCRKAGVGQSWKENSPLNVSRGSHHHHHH

A % Total in marker M1 (negative gate) [1] of 0.99%, a % Total in marker M2 (positive gate) [1] of 98.9% and a Geo Mean (FL1-H), marker All [1] of 168 were found for “mouse anti-human TF mAb (Calbiochem, Cat. # 612161) (antibody)” in this work. The Geo Mean (FL1-H), marker M1 [1] was 7.54, the Geo Mean (FL1-H), marker M2 [1] was 174 and the % Total in marker M1 (negative gate) [2] was 0.42%. It also gave a % Total in marker M2 (positive gate) [2] of 99.4%, a Geo Mean (FL1-H), marker All [2] of 262 and a Geo Mean (FL1-H), marker M1 [2] of 8.16. For the same substance, the Geo Mean (FL1-H), marker M2 [2] was 267.
